From article PMC9482650, “Quantitative fragmentomics allow affinity mapping of interactomes” (Nature Communications, 2022)

Key:
Test in all cases: holdup assay
Design in all cases: key: below the threshold = too weak to quantify, mostly under pKd 3.1 to 4
SNTB1, Q13884 = biological target: T1, SNTB1, Q13884
T1 sequence (Q13884 107-205, limits assumed, looked up): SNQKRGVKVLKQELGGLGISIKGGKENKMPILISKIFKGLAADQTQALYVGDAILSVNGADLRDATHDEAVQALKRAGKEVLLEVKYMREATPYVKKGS

DLG4_2, P78352 = biological target: DLG4_2, P78352
Chain of DLG4_2, P78352 (P78352 155-259): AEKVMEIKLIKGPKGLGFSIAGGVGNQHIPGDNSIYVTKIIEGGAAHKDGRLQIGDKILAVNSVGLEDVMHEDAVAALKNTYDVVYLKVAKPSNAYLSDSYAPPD

PDZD2_2, O15018 = biological target: T2, PDZD2_2, O15018
T2 sequence (O15018 329-429, limits assumed, looked up): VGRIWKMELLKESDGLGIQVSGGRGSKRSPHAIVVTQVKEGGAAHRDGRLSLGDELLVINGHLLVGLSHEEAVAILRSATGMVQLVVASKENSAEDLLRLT

APBA2_2, Q99767 = biological target: T3, APBA2_2, Q99767
T3 sequence (Q99767 654-744, limits assumed, looked up): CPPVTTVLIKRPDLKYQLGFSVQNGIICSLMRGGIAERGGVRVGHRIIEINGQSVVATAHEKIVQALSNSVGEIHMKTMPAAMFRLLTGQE

MAGI2_5, Q86UL8 = biological target: MAGI2_5, Q86UL8
Chain of MAGI2_5, Q86UL8 (Q86UL8 915-1017): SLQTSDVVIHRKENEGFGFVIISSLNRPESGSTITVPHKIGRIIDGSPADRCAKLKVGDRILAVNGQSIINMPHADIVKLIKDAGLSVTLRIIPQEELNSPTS

Inadl_10, Q8NI35 = biological target: Inadl_10, Q8NI35
Chain of Inadl_10, Q8NI35 (Q8NI35 1673-1763): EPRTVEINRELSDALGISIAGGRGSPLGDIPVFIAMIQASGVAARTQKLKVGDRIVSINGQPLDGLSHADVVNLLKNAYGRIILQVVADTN

MAST1, Q9Y2H9 = biological target: MAST1, Q9Y2H9
Chain of MAST1, Q9Y2H9 (Q9Y2H9 962-1065): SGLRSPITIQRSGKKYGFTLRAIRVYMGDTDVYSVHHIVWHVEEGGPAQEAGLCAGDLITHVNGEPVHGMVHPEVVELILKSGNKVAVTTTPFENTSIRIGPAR

HTRA2, O43464 = biological target: HTRA2, O43464
Chain of HTRA2, O43464 (O43464 355-458): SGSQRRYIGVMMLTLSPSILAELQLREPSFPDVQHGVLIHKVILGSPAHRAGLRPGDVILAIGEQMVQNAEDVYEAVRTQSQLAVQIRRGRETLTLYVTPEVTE

GRID2IP_2, A4D2P6 = biological target: GRID2IP_2, A4D2P6
Chain of GRID2IP_2, A4D2P6 (A4D2P6 272-370): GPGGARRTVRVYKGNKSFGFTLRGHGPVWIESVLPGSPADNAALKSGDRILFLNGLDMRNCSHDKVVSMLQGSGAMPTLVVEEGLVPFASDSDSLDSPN

GRASP, Q7Z6J2 = biological target: GRASP, Q7Z6J2
Chain of GRASP, Q7Z6J2 (Q7Z6J2 96-193): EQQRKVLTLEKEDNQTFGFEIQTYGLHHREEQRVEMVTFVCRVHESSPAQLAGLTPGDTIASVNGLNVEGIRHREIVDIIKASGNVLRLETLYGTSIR

DLG4_1, P78352 = biological target: DLG4_1, P78352
Chain of DLG4_1, P78352 (P78352 62-152): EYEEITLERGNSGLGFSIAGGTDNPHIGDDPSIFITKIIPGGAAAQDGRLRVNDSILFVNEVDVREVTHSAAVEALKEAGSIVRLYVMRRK

GRIP2_5, Q9C0E4 = biological target: GRIP2_5, Q9C0E4
Chain of GRIP2_5, Q9C0E4 (Q9C0E4 544-642): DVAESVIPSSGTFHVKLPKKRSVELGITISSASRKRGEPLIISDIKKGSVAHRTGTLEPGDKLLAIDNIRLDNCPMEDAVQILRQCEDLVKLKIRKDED

LNX1_2, Q8TBB1 = biological target: LNX1_2, Q8TBB1
Chain of LNX1_2, Q8TBB1 (Q8TBB1 371-470): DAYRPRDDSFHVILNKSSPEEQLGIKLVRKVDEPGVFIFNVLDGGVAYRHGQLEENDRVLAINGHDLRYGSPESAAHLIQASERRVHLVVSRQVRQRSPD

LAP2, Q96RT1 = biological target: LAP2, Q96RT1
Chain of LAP2, Q96RT1 (Q96RT1 other isoform, or with tags, fused parts or gaps): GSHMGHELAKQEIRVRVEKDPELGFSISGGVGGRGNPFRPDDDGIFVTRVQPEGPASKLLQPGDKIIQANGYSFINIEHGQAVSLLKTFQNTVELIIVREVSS

DLG2_3, Q15700 = biological target: DLG2_3, Q15700
FRMPD4, Q14CM0 = biological target: FRMPD4, Q14CM0
Chain of FRMPD4, Q14CM0 (Q14CM0 67-160): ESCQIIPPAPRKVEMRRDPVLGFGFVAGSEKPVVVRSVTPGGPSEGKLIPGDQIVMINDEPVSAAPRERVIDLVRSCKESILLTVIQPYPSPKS

MAST2, Q6P0Q8 = biological target: MAST2, Q6P0Q8
Chain of MAST2, Q6P0Q8 (Q6P0Q8 1099-1202): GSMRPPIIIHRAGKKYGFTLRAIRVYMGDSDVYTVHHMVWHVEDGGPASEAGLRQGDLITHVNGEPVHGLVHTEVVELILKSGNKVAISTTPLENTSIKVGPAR

HTRA1, Q92743 = biological target: HTRA1, Q92743
Chain of HTRA1, Q92743 (Q92743 360-477): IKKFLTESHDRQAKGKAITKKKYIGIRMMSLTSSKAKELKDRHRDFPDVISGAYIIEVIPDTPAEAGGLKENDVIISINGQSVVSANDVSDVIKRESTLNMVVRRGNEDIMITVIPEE

LNX1_3, Q8TBB1 = biological target: LNX1_3, Q8TBB1
Chain of LNX1_3, Q8TBB1 (Q8TBB1 500-596): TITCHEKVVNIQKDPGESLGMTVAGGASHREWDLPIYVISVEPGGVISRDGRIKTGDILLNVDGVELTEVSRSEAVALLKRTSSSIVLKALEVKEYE

IL16_4, Q14005 = biological target: IL16_4, Q14005
Chain of IL16_4, Q14005 (Q14005 1229-1329): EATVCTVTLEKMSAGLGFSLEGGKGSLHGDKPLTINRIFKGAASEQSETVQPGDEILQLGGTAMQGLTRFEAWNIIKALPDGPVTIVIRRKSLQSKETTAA

SHANK1, Q9Y566 = biological target: T4, SHANK1, Q9Y566
T4 sequence (Q9Y566 658-767, limits assumed, looked up): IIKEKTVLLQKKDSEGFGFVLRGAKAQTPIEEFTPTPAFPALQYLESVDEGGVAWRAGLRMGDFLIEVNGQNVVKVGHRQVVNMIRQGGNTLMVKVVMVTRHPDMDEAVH

ARHGAP21, Q5T5U3 = biological target: T5, ARHGAP21, Q5T5U3
T5 sequence (Q5T5U3 45-169, limits assumed, looked up): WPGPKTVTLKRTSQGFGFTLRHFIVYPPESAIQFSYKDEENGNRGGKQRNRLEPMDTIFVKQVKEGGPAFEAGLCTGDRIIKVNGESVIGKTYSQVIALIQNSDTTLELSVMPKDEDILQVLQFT

MAGI2_4, Q86UL8 = biological target: MAGI2_4, Q86UL8
Chain of MAGI2_4, Q86UL8 (Q86UL8 772-865): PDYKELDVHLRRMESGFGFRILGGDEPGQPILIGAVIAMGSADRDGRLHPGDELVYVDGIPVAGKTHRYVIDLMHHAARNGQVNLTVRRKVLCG

GIPC2, Q8TF65 = biological target: GIPC2, Q8TF65
Chain of GIPC2, Q8TF65 (Q8TF65 112-203): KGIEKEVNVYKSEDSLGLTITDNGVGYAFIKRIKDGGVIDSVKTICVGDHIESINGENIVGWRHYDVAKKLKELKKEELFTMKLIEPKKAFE

GORASP2, Q9H8Y8 = biological target: GORASP2, Q9H8Y8
Inadl_6, Q8NI35 = biological target: Inadl_6, Q8NI35
Chain of Inadl_6, Q8NI35 (Q8NI35 1058-1167): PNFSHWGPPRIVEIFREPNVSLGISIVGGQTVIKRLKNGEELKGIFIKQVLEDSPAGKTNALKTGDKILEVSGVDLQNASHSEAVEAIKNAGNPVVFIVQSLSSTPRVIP

MAGI3_2, Q5TCQ9 = biological target: MAGI3_2, Q5TCQ9
Chain of MAGI3_2, Q5TCQ9 (Q5TCQ9 398-503): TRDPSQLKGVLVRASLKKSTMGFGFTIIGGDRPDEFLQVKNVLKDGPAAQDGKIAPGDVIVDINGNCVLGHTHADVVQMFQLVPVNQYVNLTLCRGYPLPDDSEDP

IL16_1, Q14005 = biological target: IL16_1, Q14005
Chain of IL16_1, Q14005 (Q14005 210-306): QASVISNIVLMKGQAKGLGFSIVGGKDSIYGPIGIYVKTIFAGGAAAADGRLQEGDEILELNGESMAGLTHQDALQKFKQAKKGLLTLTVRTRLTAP

DLG4_3, P78352 = biological target: DLG4_3, P78352
Chain of DLG4_3, P78352 (P78352 306-403): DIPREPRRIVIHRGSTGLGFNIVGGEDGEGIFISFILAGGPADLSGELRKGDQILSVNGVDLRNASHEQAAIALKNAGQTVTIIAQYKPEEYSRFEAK

RADIL, Q96JH8 = biological target: T6, RADIL, Q96JH8
T6 sequence (Q96JH8 971-1071, limits assumed, looked up): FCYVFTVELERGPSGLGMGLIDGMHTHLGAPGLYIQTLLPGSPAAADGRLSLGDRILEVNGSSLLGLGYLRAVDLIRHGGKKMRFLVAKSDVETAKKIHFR

DLG1_2, Q12959 = biological target: DLG1_2, Q12959
Chain of DLG1_2, Q12959 (Q12959 314-412): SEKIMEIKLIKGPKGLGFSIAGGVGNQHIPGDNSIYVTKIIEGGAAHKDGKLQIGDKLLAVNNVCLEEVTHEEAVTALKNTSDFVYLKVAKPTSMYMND

PDLIM1, O00151 = biological target: PDLIM1, O00151
Chain of PDLIM1, O00151 (O00151 1-87): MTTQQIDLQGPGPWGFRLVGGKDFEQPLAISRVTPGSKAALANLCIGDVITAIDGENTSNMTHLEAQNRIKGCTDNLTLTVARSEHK

Inadl_1, Q8NI35 = biological target: Inadl_1, Q8NI35
Chain of Inadl_1, Q8NI35 (Q8NI35 113-229): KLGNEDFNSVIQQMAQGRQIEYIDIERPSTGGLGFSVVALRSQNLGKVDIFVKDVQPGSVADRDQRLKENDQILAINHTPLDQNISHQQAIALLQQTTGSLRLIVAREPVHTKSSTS

[1] = plain residues with an end cap or a label only (N-terminal biotin on a linker: ahx)
[2] = plain residues with an end cap or a label only (N-terminal biotin on a linker: (peg)3)

With QDEKVKESYV [ABCA1, O95477] the pKd (SNTB1, Q13884; [1]) was 5.22, the pKd (DLG4_2, P78352; [1]) was 5.25 and the pKd (PDZD2_2, O15018; [1]) was 5.66. The pKd (APBA2_2, Q99767; [1]) was “below the threshold”, the pKd (MAGI2_5, Q86UL8; [1]) was 4.58 and the pKd (Inadl_10, Q8NI35; [1]) was “below the threshold”. For the same binder, the pKd (MAST1, Q9Y2H9; [1]) was 4.16, the pKd (HTRA2, O43464; [1]) was “below the threshold” and the pKd (GRID2IP_2, A4D2P6; [1]) was 3.97. For the same binder, the pKd (GRASP, Q7Z6J2; [1]) was 3.57, the pKd (DLG4_1, P78352; [1]) was 4.52 and the pKd (GRIP2_5, Q9C0E4; [1]) was “below the threshold”. For the same binder, the pKd (LNX1_2, Q8TBB1; [1]) was “below the threshold”, the pKd (LAP2, Q96RT1; [1]) was 4.41 and the pKd (DLG2_3, Q15700; [1]) was 4.63. For the same binder, the pKd (FRMPD4, Q14CM0; [1]) was “below the threshold”, the pKd (MAST2, Q6P0Q8; [1]) was 4.68 and the pKd (HTRA1, Q92743; [1]) was 4.28. The pKd (LNX1_3, Q8TBB1; [1]) was “below the threshold”, the pKd (IL16_4, Q14005; [1]) was “below the threshold” and the pKd (SHANK1, Q9Y566; [1]) was “below the threshold”. The pKd (ARHGAP21, Q5T5U3; [1]) was “below the threshold”, the pKd (MAGI2_4, Q86UL8; [1]) was 4.04 and the pKd (GIPC2, Q8TF65; [1]) was 4.26. The pKd (GORASP2, Q9H8Y8; [1]) was 3.75, the pKd (Inadl_6, Q8NI35; [1]) was 4.29 and the pKd (MAGI3_2, Q5TCQ9; [1]) was 5.14. For the same binder, the pKd (IL16_1, Q14005; [1]) was 4.91, the pKd (DLG4_3, P78352; [1]) was 3.78 and the pKd (RADIL, Q96JH8; [1]) was 4.89. For the same binder, the pKd (DLG1_2, Q12959; [1]) was 5.09, the pKd (PDLIM1, O00151; [1]) was “below the threshold” and the pKd (Inadl_1, Q8NI35; [1]) was “below the threshold”.

Binder RYEDTTLVEDTVL [WNV-NS5, Q9Q6P4] has a pKd (SNTB1, Q13884; [2]) of 4.27, a pKd (DLG4_2, P78352; [2]) of 3.7 and a pKd (PDZD2_2, O15018; [2]) of 4.42. The pKd (APBA2_2, Q99767; [2]) was “below the threshold”, the pKd (MAGI2_5, Q86UL8; [2]) was “below the threshold” and the pKd (Inadl_10, Q8NI35; [2]) was “below the threshold”. The pKd (MAST1, Q9Y2H9; [2]) was 4.3, the pKd (HTRA2, O43464; [2]) was “below the threshold” and the pKd (GRID2IP_2, A4D2P6; [2]) was 3.72. For the same binder, the pKd (GRASP, Q7Z6J2; [2]) was 3.9, the pKd (DLG4_1, P78352; [2]) was “below the threshold” and the pKd (GRIP2_5, Q9C0E4; [2]) was “below the threshold”. For the same binder, the pKd (LNX1_2, Q8TBB1; [2]) was “below the threshold”, the pKd (LAP2, Q96RT1; [2]) was “below the threshold” and the pKd (DLG2_3, Q15700; [2]) was “below the threshold”. It also gave a pKd (FRMPD4, Q14CM0; [2]) of 4.85, a pKd (MAST2, Q6P0Q8; [2]) of 5.64 and a pKd (HTRA1, Q92743; [2]) of 4.58. The pKd (LNX1_3, Q8TBB1; [2]) was “below the threshold”, the pKd (IL16_4, Q14005; [2]) was 3.56 and the pKd (SHANK1, Q9Y566; [2]) was 4.77. The pKd (ARHGAP21, Q5T5U3; [2]) was 5.01, the pKd (MAGI2_4, Q86UL8; [2]) was “below the threshold” and the pKd (GIPC2, Q8TF65; [2]) was “below the threshold”. For the same binder, the pKd (GORASP2, Q9H8Y8; [2]) was “below the threshold”, the pKd (Inadl_6, Q8NI35; [2]) was “below the threshold” and the pKd (MAGI3_2, Q5TCQ9; [2]) was 3.5. The pKd (IL16_1, Q14005; [2]) was “below the threshold”, the pKd (DLG4_3, P78352; [2]) was “below the threshold” and the pKd (RADIL, Q96JH8; [2]) was “below the threshold”. The pKd (DLG1_2, Q12959; [2]) was 3.77, the pKd (PDLIM1, O00151; [2]) was “below the threshold” and the pKd (Inadl_1, Q8NI35; [2]) was “below the threshold”.
